Test results reported in US10799605B2 (3B PHARMACEUTICALS GMBH, priority 2014, dated 2020).

Legend:
CCR1 (h) = molecular target: T1, CCR1 (h) (Homo sapiens (Human), UniProt P32246); assay: ExpresSProfile: C-C chemokine receptor type 1, agonist radioligand; assay type: binding; settings: Reference Compound
T1 sequence (P32246 whole entry, looked up): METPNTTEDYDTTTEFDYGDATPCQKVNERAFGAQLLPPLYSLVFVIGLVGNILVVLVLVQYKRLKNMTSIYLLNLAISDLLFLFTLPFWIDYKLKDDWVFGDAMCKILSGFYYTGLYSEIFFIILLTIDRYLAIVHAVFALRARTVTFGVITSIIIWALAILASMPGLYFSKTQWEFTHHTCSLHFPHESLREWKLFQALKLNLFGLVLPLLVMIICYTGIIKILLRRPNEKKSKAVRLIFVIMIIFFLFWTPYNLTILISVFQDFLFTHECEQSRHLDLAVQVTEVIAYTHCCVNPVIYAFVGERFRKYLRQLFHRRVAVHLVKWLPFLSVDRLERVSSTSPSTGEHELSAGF

[1] = in vivo; cited from earlier work

nH Ref (CCR1 (h))	Compound	blood-brain barrier crossing [1]
1.1	MIP-1alpha	–
–	COc1cccc(OC)c1-c1cc(C(=O)NC2(C(=O)O)C3CC4CC(C3)CC2C4)nn1-c1ccc(C(=O)N(C)CCCN(C)C)cc1C(C)C (centres unmarked) [SR142948, 2-[(5-(2,6-Dimethoxy-phenyl)-1-{4-[(3-dimethylamino-propyl)-methyl-carbamoyl]-2-isopropyl-phenyl}-1H-pyrazole-3-carbonyl)-amino]-adamantane-2-carboxylic acid]	cross the blood-brain barrier
